# According to PMC12491506, “Identification of a RAB32-LRMDA-Commander membrane trafficking complex reveals the molecular mechanism of human oculocutaneous albinism type 7” (Nature Communications, 2025):
# T1: recombinant LRMDA (tag-less) (human, UniProt A0A087WWI0 1-226)
# T1 construct: LRMDA, human, full-length, longer isoform (this isoform was used in all experiments); gene synthesised with codon optimisation for S. frugiperda; also called purified LRMDA; HaloTag-TEV-LRMDA after TEV cleavage; source: Sf21 insect cells (baculovirus), purified (HaloLink resin, TEV cleavage); not shown: HaloTag, N-terminal, cleaved
# T1 sequence (looked up): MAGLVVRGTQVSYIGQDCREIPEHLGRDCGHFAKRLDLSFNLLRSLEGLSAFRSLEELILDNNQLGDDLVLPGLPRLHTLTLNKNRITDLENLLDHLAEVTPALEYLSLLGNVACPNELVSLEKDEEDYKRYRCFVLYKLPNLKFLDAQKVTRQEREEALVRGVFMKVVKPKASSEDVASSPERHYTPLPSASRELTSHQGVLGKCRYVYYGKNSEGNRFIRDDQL
# B1: recombinant RAB32 (tag-less) (natural protein, human, UniProt Q13637 1-225, looked up)
# chain: MAGGGAGDPGLGAAAAPAPETREHLFKVLVIGELGVGKTSIIKRYVHQLFSQHYRATIGVDFALKVLNWDSRTLVRLQLWDIAGQERFGNMTRVYYKEAVGAFVVFDISRSSTFEAVLKWKSDLDSKVHLPNGSPIPAVLLANKCDQNKDSSQSPSQVDQFCKEHGFAGWFETSAKDNINIEEAARFLVEKILVNHQSFPNEENDVDKIKLDQETLRAENKSQCC
# notes: RAB32, human, full-length; also called purified RAB32; GST-TEV-RAB32 after TEV cleavage; source: Sf21 insect cells (baculovirus), purified (Glutathione Sepharose 4b, TEV cleavage); not shown: GST, N-terminal, cleaved
# Target: T1, recombinant LRMDA (tag-less)
# Experiment: pull-down; 0.5 µM Retriever (His-tagged VPS29) on TALON resin with 1 µM LRMDA and 1 µM RAB32 together; 50 mM HEPES pH 7.2, 150 mM NaCl, 2 mM β-mercaptoethanol, 0.1% Triton X-100; 45 min at 4 °C; washes with 10 mM imidazole
# Details: both partners purified
binder,measurement,value
B1,binding result,binds
